Measurements taken from the supplement of paper PMC10567573.

B1: ZNF263 (parent)
chain: PEASHLRFRRFRFQEAAGPREALS

Variants of: B1
Assay: protein stability index of a GFP-peptide fusion (GPS, HEK-293T) (PSI 1-6); higher = more stable
Details: c terminus: a fixed tail appended
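Note: lentivirally expressed fusions sorted by FACS into six bins by GFP to DsRed ratio, PSI derived from sequencing read proportions per bin multiplied by bin number.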

Variant | protein stability index
PEAEHLRFRRFRFQEAAGPREALS [S4E] | 2.97
PEATHLRFRRFRFQEAAGPREALS [S4T] | 2.76
PEAAHLRFRRFRFQEAAGPREALS [S4A] | 2.4
PEAVHLRFRRFRFQEAAGPREALS [S4V] | 1.93
PEAQHLRFRRFRFQEAAGPREALS [S4Q] | 2.19
PEAPHLRFRRFRFQEAAGPREALS [S4P] | 3.78
PEADHLRFRRFRFQEAAGPREALS [S4D] | 2.92
PEAWHLRFRRFRFQEAAGPREALS [S4W] | 3.12
PEANHLRFRRFRFQEAAGPREALS [S4N] | 2.8
PEASHLRFRRFRFQEACGPREALS [A17C] | 2.14
PEASHLRFRRFRFQEATGPREALS [A17T] | 2.61
PEASHLRFRRFRFQEAYGPREALS [A17Y] | 2.04
PEASHLRFRRFRFQEAQGPREALS [A17Q] | 2.75
PEASHLRFRRFRFQEAFGPREALS [A17F] | 1.88
PEASHLRFRRFRFQEAVGPREALS [A17V] | 2.55
PEASHLRFRRFRFQEAGGPREALS [A17G] | 2.58
PEASHLRFRRFRFQEAEGPREALS [A17E] | 3.34
PEASHQRFRRFRFQEAAGPREALS [L6Q] | 3.63
PEASHGRFRRFRFQEAAGPREALS [L6G] | 3.46
PEASHSRFRRFRFQEAAGPREALS [L6S] | 3.23
PEASHNRFRRFRFQEAAGPREALS [L6N] | 3.03
PEASHHRFRRFRFQEAAGPREALS [L6H] | 3.46
PEASHTRFRRFRFQEAAGPREALS [L6T] | 1.98
PEASHDRFRRFRFQEAAGPREALS [L6D] | 3.62

Variant | protein stability index
PEASHWRFRRFRFQEAAGPREALS [L6W] | 2.37
PEASHFRFRRFRFQEAAGPREALS [L6F] | 2.75
PEASHLRFRRFEFQEAAGPREALS [R12E] | 5.03
PEASHLRFRRFFFQEAAGPREALS [R12F] | 2.19
PEASHLRFRRFQFQEAAGPREALS [R12Q] | 4.36
PEASHLRFRRFMFQEAAGPREALS [R12M] | 3.46
PEASHLRFRRFIFQEAAGPREALS [R12I] | 2.33
PEASHLRFRRFAFQEAAGPREALS [R12A] | 3.32
PEASHLRFRRFTFQEAAGPREALS [R12T] | 3.59
PEASHLRFRRFWFQEAAGPREALS [R12W] | 2.56
VEASHLRFRRFRFQEAAGPREALS [P1V] | 1.85
AEASHLRFRRFRFQEAAGPREALS [P1A] | 1.75
TEASHLRFRRFRFQEAAGPREALS [P1T] | 2.44
LEASHLRFRRFRFQEAAGPREALS [P1L] | 2.53
SEASHLRFRRFRFQEAAGPREALS [P1S] | 3.74
QEASHLRFRRFRFQEAAGPREALS [P1Q] | 2.79
REASHLRFRRFRFQEAAGPREALS [P1R] | 2.97
EEASHLRFRRFRFQEAAGPREALS [P1E] | 2.97
NEASHLRFRRFRFQEAAGPREALS [P1N] | 2.13
PEASHLRFRRFRFQEAAGMREALS [P19M] | 2.8
PEASHLRFRRFRFQEAAGRREALS [P19R] | 2.71
PEASHLRFRRFRFQEAAGSREALS [P19S] | 2.87
PEASHLRFRRFRFQEAAGEREALS [P19E] | 3.39
PEASHLRFRRFRFQEAAGAREALS [P19A] | 2.71

Variant | protein stability index
PEASHLRFRRFRFQEAAGIREALS [P19I] | 2.04
PEASHLRFRRFRFQEAAGNREALS [P19N] | 2.63
PEASHLRFRRFRFQEAAGFREALS [P19F] | 1.76
PEASHLRFRRFREQEAAGPREALS [F13E] | 3.86
PEASHLRFRRFRIQEAAGPREALS [F13I] | 3.28
PEASHLRFRRFRRQEAAGPREALS [F13R] | 3.56
PEASHLRFRRFRGQEAAGPREALS [F13G] | 4.17
PEASHLRFRRFRYQEAAGPREALS [F13Y] | 2.3
PEASHLRFRRFRCQEAAGPREALS [F13C] | 2.75
PEASHLRFRRFRTQEAAGPREALS [F13T] | 4.15
PEASHLRFRIFRFQEAAGPREALS [R10I] | 1.86
PEASHLRFRSFRFQEAAGPREALS [R10S] | 2.72
PEASHLRFRVFRFQEAAGPREALS [R10V] | 1.26
PEASHLRFRFFRFQEAAGPREALS [R10F] | 1.79
PEASHLRFRGFRFQEAAGPREALS [R10G] | 2.62
PEASHLRFRAFRFQEAAGPREALS [R10A] | 2.18
PEASHLRFRKFRFQEAAGPREALS [R10K] | 2.65
PEASHLRFRYFRFQEAAGPREALS [R10Y] | 1.91
PEASHLRWRRFRFQEAAGPREALS [F8W] | 1.94
PEASHLRKRRFRFQEAAGPREALS [F8K] | 3.29
PEASHLRSRRFRFQEAAGPREALS [F8S] | 3.21
PEASHLRERRFRFQEAAGPREALS [F8E] | 3.98
PEASHLRARRFRFQEAAGPREALS [F8A] | 3.28
PEASHLRTRRFRFQEAAGPREALS [F8T] | 3.4

Variant | protein stability index
PEASHLRHRRFRFQEAAGPREALS [F8H] | 3.23
PEASHLRFRRFRFQEAAGPTEALS [R20T] | 2.65
PEASHLRFRRFRFQEAAGPYEALS [R20Y] | 1.49
PEASHLRFRRFRFQEAAGPSEALS [R20S] | 2.58
PEASHLRFRRFRFQEAAGPLEALS [R20L] | 2.29
PEASHLRFRRFRFQEAAGPAEALS [R20A] | 3.17
PEASHLRFRRFRFQEAAGPMEALS [R20M] | 2.21
PEASHLRFRRFRFQEAAGPKEALS [R20K] | 2.38
PEASHLRFRRFRFQEAAGPREALG [S24G] | 2.3
PEASHLRFRRFRFQEAAGPREALP [S24P] | 2.57
PEASHLRFRRFRFQEAAGPREALL [S24L] | 2.65
PEASHLRFRRFRFQEAAGPREALY [S24Y] | 2.37
PEASHLRFRRFRFQEAAGPREALD [S24D] | 3.06
PEASHLRFRRFRFQEAAGPREALK [S24K] | 2.76
PEASHLRFRRFRFQEAAGPREVLS [A22V] | 2.15
PEASHLRFRRFRFQEAAGPREELS [A22E] | 3.15
PEASHLRFRRFRFQEAAGPRECLS [A22C] | 2.65
PEASHLRFRRFRFQEAAGPREWLS [A22W] | 2.03
PEASHLRFRRFRFQEAAGPRELLS [A22L] | 2.51
PEASHLRFRRFRFQEAAGPRENLS [A22N] | 2.87
PEASHLRFRRFRFQEAAGPREYLS [A22Y] | 2.29
PEASHLRFRRFRFQEAAGPREPLS [A22P] | 3.7
